Assay results from publication PMC10786891, “Massively parallel profiling of RNA-targeting CRISPR-Cas13d”.
Where a chain is given by its changes, count along the chain named. In names and notes the source's numbering stands.

B1: target 1 insC 3' of 18,insU 3' of 1 (mixed)
RNA 1: CACCCGUGCAAAAAUGCAGGGGUCUAAAACUGAGCGGAUAACCUCUCUAUGG
RNA 2: GGGAAUGGAUCCACAUCUACGAAUUCGUACCAUACGAGAGGUUAUCCGCUCAUCCGAGAUCGGAAGAGCACACGU
B2: target 1 insU 3' of 6,insG 3' of 1 (mixed)
RNA 1: B1 RNA 1
RNA 2: GGGAAUGGAUCCACAUCUACGAAUUCGUACCAUAGAGAGGUUAUCCUGCUCAGCCGAGAUCGGAAGAGCACACGU
B3: target 1 insC 3' of 20,insC 3' of 5 (mixed)
RNA 1: B1 RNA 1
RNA 2: B1 RNA 2 with U33C, A34U, C35A, U50C, C51U, A52C, U53A
B4: target 1 del2,del14 (mixed)
RNA 1: B1 RNA 1
RNA 2: GGGAAUGGAUCCACAUCUACGAAUUCGUACCAUAGAGGGUUAUCCGCUACCGAGAUCGGAAGAGCACACGU
B5: target 1 insU 3' of 20,insG 3' of 10 (mixed)
RNA 1: B1 RNA 1
RNA 2: GGGAAUGGAUCCACAUCUACGAAUUCGUACCAUUAGAGAGGUUGAUCCGCUCACCGAGAUCGGAAGAGCACACGU
B6: target 1 insC 3' of 13,insC 3' of 10 (mixed)
RNA 1: B1 RNA 1
RNA 2: B5 RNA 2 with U34A, A35G, G36A, A37G, G38A, A39G, G40C, G44C
B7: target 1 insC 3' of 9,insC 3' of 9 (mixed)
RNA 1: B1 RNA 1
RNA 2: B2 RNA 2 with U44C, C46U, U47C, G48C, C49G, U50C, C51U, A52C, G53A
B8: target 1 complement block 2-8 (mixed)
RNA 1: B1 RNA 1
RNA 2: GGGAAUGGAUCCACAUCUACGAAUUCGUACCAUAGAGAGGUUAAGGCGAGACCGAGAUCGGAAGAGCACACGU
B9: target 1 C7U,U19G (mixed)
RNA 1: B1 RNA 1
RNA 2: B8 RNA 2 with U33G, A44U, G45U, G46C, C47G, G48C, A49U, G50C
B10: target 1 A9U,U10G (mixed)
RNA 1: B1 RNA 1
RNA 2: B8 RNA 2 with U42G, A43U, A44U, G45C, G46C, C47G, G48C, A49U, G50C
B11: target 1 U8C,C21A (mixed)
RNA 1: B1 RNA 1
RNA 2: B8 RNA 2 with C31A, A44C, G45C, G46C, C47G, G48C, A49U, G50C
B12: target 1 insC 3' of 18,insU 3' of 9 (mixed)
RNA 1: B1 RNA 1
RNA 2: B5 RNA 2 with U34A, A35C, G44A, A45U
B13: target 1 complement block 4-11 (mixed)
RNA 1: B1 RNA 1
RNA 2: B8 RNA 2 with U41A, U42A, A43U, A49U, G50C
B14: target 1 A1U,A9G (mixed)
RNA 1: B1 RNA 1
RNA 2: B8 RNA 2 with A43G, A44U, G45C, G46C, C47G, G48C, A49U, G50C, A51U
B15: target 1 insA 3' of 22,insA 3' of 10 (mixed)
RNA 1: B1 RNA 1
RNA 2: B5 RNA 2 with C31A, A32C, U33A, G44A
B16: target 1 U3G,A18G (mixed)
RNA 1: B1 RNA 1
RNA 2: B8 RNA 2 with A34G, A44U, G45C, G46C, C47G, G48C, A49G, G50C
B17: target 1 insC 3' of 14,insC 3' of 14 (mixed)
RNA 1: B1 RNA 1
RNA 2: B5 RNA 2 with U34A, A35G, G36A, A37G, G38A, A39C, G40C, U42G, G44U
B18: target 1 C7A,U10A (mixed)
RNA 1: B1 RNA 1
RNA 2: B8 RNA 2 with U42A, A44U, G45A, G46C, C47G, G48C, A49U, G50C
B19: target 1 insA 3' of 15,insA 3' of 8 (mixed)
RNA 1: B1 RNA 1
RNA 2: B5 RNA 2 with U34A, A35G, G36A, A37G, G38A, G44A, A45U, U46A
B20: target 1 G5C,G15A (mixed)
RNA 1: B1 RNA 1
RNA 2: B8 RNA 2 with G37A, A44U, G45C, G46C, G48C, A49U, G50C
B21: target 1 G13A,C21A (mixed)
RNA 1: B1 RNA 1
RNA 2: B8 RNA 2 with C31A, G39A, A44U, G45C, G46C, C47G, G48C, A49U, G50C
B22: target 1 A1G,C4U (mixed)
RNA 1: B1 RNA 1
RNA 2: B8 RNA 2 with A44U, G45C, G46C, C47G, G48U, A49U, G50C, A51G
B23: target 1 C2G,G5A (mixed)
RNA 1: B1 RNA 1
RNA 2: B8 RNA 2 with A44U, G45C, G46C, C47A, G48C, A49U
B24: target 1 A1C,A9G (mixed)
RNA 1: B1 RNA 1
RNA 2: B8 RNA 2 with A43G, A44U, G45C, G46C, C47G, G48C, A49U, G50C, A51C
B25: target 1 A1C,C4U (mixed)
RNA 1: B1 RNA 1
RNA 2: B8 RNA 2 with A44U, G45C, G46C, C47G, G48U, A49U, G50C, A51C
B26: target 1 insA 3' of 19,insU 3' of 4 (mixed)
RNA 1: B1 RNA 1
RNA 2: B1 RNA 2 with C35A, C51U, A52C, U53A
B27: target 1 A1G,A9G (mixed)
RNA 1: B1 RNA 1
RNA 2: B8 RNA 2 with A43G, A44U, G45C, G46C, C47G, G48C, A49U, G50C, A51G
B28: target 1 G5A,U8C (mixed)
RNA 1: B1 RNA 1
RNA 2: B8 RNA 2 with A44C, G45C, G46C, C47A, G48C, A49U, G50C
B29: target 1 insC 3' of 18,insA 3' of 3 (mixed)
RNA 1: B1 RNA 1
RNA 2: B1 RNA 2 with C51A, A52C, U53A
B30: target 1 insU 3' of 9,insC 3' of 3 (mixed)
RNA 1: B1 RNA 1
RNA 2: B2 RNA 2 with C45U, U47C, A52C, G53A
B31: target 1 U11G,G17U (mixed)
RNA 1: B1 RNA 1
RNA 2: B8 RNA 2 with G35U, U41G, A44U, G45C, G46C, C47G, G48C, A49U, G50C
B32: target 1 G5A,A9U (mixed)
RNA 1: B1 RNA 1
RNA 2: B8 RNA 2 with A43U, A44U, G45C, G46C, C47A, G48C, A49U, G50C
B33: target 1 insU 3' of 14,insA 3' of 11 (mixed)
RNA 1: B1 RNA 1
RNA 2: B5 RNA 2 with U34A, A35G, G36A, A37G, G38A, A39U, U43A, G44U
B34: target 1 del14,del16 (mixed)
RNA 1: B1 RNA 1
RNA 2: GGGAAUGGAUCCACAUCUACGAAUUCGUACCAUAGGGGUUAUCCGCUCACCGAGAUCGGAAGAGCACACGU
B35: target 1 insU 3' of 21,insA 3' of 21 (mixed)
RNA 1: B1 RNA 1
RNA 2: GGGAAUGGAUCCACAUCUACGAAUUCGUACCUAAUAGAGAGGUUAUCCGCUCACCGAGAUCGGAAGAGCACACGU

What follows are binders tested against T1, EsCas13d, nuclease-dead (Eubacterium siraeum, UniProt B0MS50, R295A;H300A;R849A;H854A) (assay: crRNA (strand 1, pre-loaded); Mg2+; 40 mM Tris-HCl pH 7.5, 150 mM NaCl, 6 mM MgCl2, 1 mM DTT, 0.1% Tween-20, 0.2 mg/ml BSA; 25 C; 10 min per concentration, then washed). Conditions: tags: His6-TwinStrep-SUMO cleaved; N-terminal SNAP kept (SNAP-Surface 488); label: 3' end held by stalled T7 RNA polymerase.
T1 sequence: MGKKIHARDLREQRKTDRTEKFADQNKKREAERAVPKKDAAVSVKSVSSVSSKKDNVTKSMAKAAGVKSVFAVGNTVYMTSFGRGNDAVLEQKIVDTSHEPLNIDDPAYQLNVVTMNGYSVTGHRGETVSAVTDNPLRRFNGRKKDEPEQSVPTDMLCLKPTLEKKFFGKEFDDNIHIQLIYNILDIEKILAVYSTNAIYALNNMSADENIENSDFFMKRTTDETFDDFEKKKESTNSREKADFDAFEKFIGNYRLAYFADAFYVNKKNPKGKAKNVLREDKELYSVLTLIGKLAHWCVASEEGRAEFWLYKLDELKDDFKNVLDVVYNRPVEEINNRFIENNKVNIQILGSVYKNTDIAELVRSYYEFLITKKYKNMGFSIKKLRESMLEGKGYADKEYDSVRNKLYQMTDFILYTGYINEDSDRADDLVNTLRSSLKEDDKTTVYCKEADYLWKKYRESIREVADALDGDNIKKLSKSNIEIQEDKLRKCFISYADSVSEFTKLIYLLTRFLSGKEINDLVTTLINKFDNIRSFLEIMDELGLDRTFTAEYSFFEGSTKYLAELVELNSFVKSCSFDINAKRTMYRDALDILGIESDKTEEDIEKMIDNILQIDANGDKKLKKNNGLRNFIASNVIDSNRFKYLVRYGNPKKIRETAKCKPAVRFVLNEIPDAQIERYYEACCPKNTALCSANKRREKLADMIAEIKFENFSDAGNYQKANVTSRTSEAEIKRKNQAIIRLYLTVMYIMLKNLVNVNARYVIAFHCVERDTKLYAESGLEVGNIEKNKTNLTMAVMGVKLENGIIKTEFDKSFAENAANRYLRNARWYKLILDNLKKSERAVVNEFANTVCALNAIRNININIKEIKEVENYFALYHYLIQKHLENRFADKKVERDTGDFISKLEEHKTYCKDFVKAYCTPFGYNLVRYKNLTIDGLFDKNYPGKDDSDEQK

| Binder | Kd [nM] |
| --- | --- |
| B1 | 30.7 ± 2.6 |
| B2 | 12.5 ± 0.8 |
| B3 | 5.23 ± 0.33 |
| B4 | 64 ± 11 |
| B5 | 29 ± 6 |
| B6 | 12.9 ± 1.3 |
| B7 | 10.7 ± 0.7 |
| B8 | 10.5 ± 0.5 |
| B9 | 57 ± 7 |
| B10 | 21.7 ± 2.1 |
| B11 | 44 ± 5 |
| B12 | 51 ± 11 |
| B13 | 12.4 ± 0.6 |
| B14 | 13.1 ± 1.3 |
| B15 | 14.6 ± 1 |
| B16 | 87 ± 23 |
| B17 | 42 ± 4 |
| B18 | 8.48 ± 0.31 |

| Binder | Kd [nM] |
| --- | --- |
| B19 | 7.4 ± 0.4 |
| B20 | 19.9 ± 1.8 |
| B21 | 35 ± 4 |
| B22 | 31 ± 5 |
| B23 | 35 ± 5 |
| B24 | 21.2 ± 3.4 |
| B25 | 9.8 ± 1.2 |
| B26 | 17.9 ± 0.9 |
| B27 | 12.6 ± 0.5 |
| B28 | 15.3 ± 0.7 |
| B29 | 23.9 ± 1.2 |
| B30 | 16.3 ± 1.1 |
| B31 | 47 ± 5 |
| B32 | 29.7 ± 1.8 |
| B33 | 54 ± 10 |
| B34 | 84 ± 17 |
| B35 | 22.4 ± 3.3 |
